Here are results for 14 molecules from patent publication US20220184120A1 (MINERVA BIOTECHNOLOGIES, published 2022).

T1: N-10 peptide (PSMGFR minus 10 amino acids from the N-terminus)
T1 construct: also called N-10 PSMGFR; PSMGFR N-10
T1 peptide: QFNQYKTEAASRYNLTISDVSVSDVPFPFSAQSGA

T2: PSMGFR peptide (Primary Sequence of the MUC1 Growth Factor Receptor)
T2 construct: synthetic peptide immobilised on ELISA plates; also called MUC1* peptide; MUC1* extra cellular domain peptide
T2 peptide: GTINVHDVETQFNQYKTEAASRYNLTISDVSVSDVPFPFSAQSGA

T3: C-10 peptide (PSMGFR minus 10 amino acids from the C-terminus)
T3 construct: also called C-10 PSMGFR; PSMGFR C-10
T3 peptide: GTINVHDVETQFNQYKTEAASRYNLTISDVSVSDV

T4: N+20/C-27 peptide (20 amino acids added onto the N-terminus and 27 deleted from the C-terminus of PSMGFR)
T4 peptide: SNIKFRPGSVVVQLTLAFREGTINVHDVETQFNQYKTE

T5: N+9/C-9 peptide (9 amino acids added onto the N-terminus and 9 deleted from the C-terminus of PSMGFR)
T5 peptide: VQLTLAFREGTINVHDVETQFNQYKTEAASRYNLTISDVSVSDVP

B1: 28F9 mouse monoclonal antibody (antibody, V domains shown)
VH: QVQLQQPGAELVQPGASVKLSCKASGYTFTGYFLYWVKQRPGHGLEWIGGIHPSNGDTDFNEKFKNKATLTVDISSSTAYMQLSSLTSEDSAVYYCTLLIGVYWGQGTTLTVSS
VL: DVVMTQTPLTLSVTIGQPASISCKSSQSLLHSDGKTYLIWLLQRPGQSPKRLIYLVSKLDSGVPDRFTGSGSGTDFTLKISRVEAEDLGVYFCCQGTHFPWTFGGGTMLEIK
notes: raised against PSMGFR; also called MN-28F9; anti-PSMGFR antibody 28F9
B2: 18G12 mouse monoclonal antibody (antibody, V domains shown)
VH: B1 VH with P7S, Q13K, H43Q, H52N, S54D, D57G, T58I, K65R, I74K, V102N
VL: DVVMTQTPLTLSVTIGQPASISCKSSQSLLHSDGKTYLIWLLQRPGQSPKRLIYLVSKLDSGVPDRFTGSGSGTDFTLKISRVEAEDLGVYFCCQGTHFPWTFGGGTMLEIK
notes: raised against PSMGFR; also called MN-18G12; anti-PSMGFR antibody 18G12
B3: 25E6 mouse monoclonal antibody (antibody, V domains shown)
VH: EVQLVESGGDLVKPGGSLKLSCAASGFTFSSYGMSWVRQTPDKRLEWVATISNGGRHTFYPDSVKGRFTISRDNAKNTLYLQMSSLKSEDTAMYLCVRQTGTEGWFAYWGQGTLVTVSA
VL: not shown
notes: raised against PSMGFR; also called MN-25E6; anti-PSMGFR antibody 25E6
B4: 31A1 mouse monoclonal antibody (antibody, V domains shown)
VH: QVQLQQSGAELAKPGASVKMSCKASGYTFTSYWMHWVKQRPGQGLEWIGYINPSTGYTEYNQKFKDKATLTADKSSSTAYMQLSSLTSEDSAVYYCARAYIDYWGQGTTLTVSS
VL: DVLMTQTPLSLPVSLGDQASFSCRSSQSIVHSNGNTYLEWYLQKPGQSPKLLIYKVSNRFSGVPDRFSGSGSGTDFTLKINRVEAEDLGVYYCFQVSHFPWTFGGGTKLEIK
notes: raised against N+20/C-27; also called N+20/C-27 antibody 31A1
B5: 29H1 mouse monoclonal antibody (antibody, V domains shown)
VH: EVKLEESGGGLVQPGGSMKLSCAASGFTFSDAWMDWVRQSPEKGLEWVAEIRSKATNHATYYAESVKGRFTISRDDSKSSVYLQMNSLRAEDTGIYYCTPLLYGFAYWGQGTLVTVSA
VL: DVVMTQTPLSLPVSLGDQASISCRSGQSLVHSNGHTYLHWYLQKPGQSPRLLIYKVSNRFSGVPDRFSGSGSRADFTLKISRVEAEDLGVYFCSQTTHVPWTFGGGTKLEIK
notes: raised against N+20/C-27; also called N+20/C-27 antibody 29H1
B6: 32C1 mouse monoclonal antibody (antibody, V domains shown)
VH: EVKLEESGGGLVQSGGSMKLSCVASGFTFSNYWMNWVRQSPEKGLEWVAEIRLKSNNYAIHYAESVKGRFTISRDDSKSSVYLQMNNLRAEDTGIYYCTRVPGLDAYWGQGTLVTVSA
VL: B5 VL with G26S, H35N, R50K, R73G, A74T, R82S, T96I, W101Y, K108N
notes: raised against N+20/C-27; also called N+20/C-27 antibody 32C1
B7: B12 mouse monoclonal antibody (antibody, V domains shown)
VH: QAQLKESGPGLVAPSQSLSITCTVSGFSLTSYGVHWVRQPPGKGLEWLGVIWPGGSTNYNSTLMSRMRIIKDNSKSQVFLKMNSLQIDDTAMYYCARDRTPRVGAWFAYWGQGTLVTVSA
VL: IIVLTQSPASLAVSLGQRATISCRASESVATYGNNFMQWYQQKPGQPPKLLIYLASTLDSGVPARFSGSGSRTDFTLTIDPVEADDAATYYCQQNNEDPPTFGGGTKLEIK
notes: raised against PSMGFR; built from framework and CDR entries
B8: 8C7F3 mouse monoclonal antibody (antibody, V domains shown)
VH: EVMLVESGGGLVKPGGSLKLSCAASGFTFSTYAMSWVRQTPEKRLEWVAAISNGGGYTYYPDSLKGRFTISRDNAKNTLYLQMSSLRSEDTATYYCARRYYDHYFDYWGQGTALTVSS
VL: B7 VL
notes: as for B7
B9: B2 mouse monoclonal antibody (antibody, V domains shown)
VH: EVVLVESGGGLVEPGGSLKLSCVASGFAFSTFAMSWIRQTPEKRLEWVAAISNGGGYTYYPDTLKGRFSISRDNAKNTLYLQMSSLRSEDTAVYYCARRYYDLYFDLWGRGTSLIVSS
VL: B4 VL with V2I, F21I, S28N, N81S, V96D, F99V, W101L, G105A, K108R, I111L
notes: as for B7
B10: B7 mouse monoclonal antibody (antibody, V domains shown)
VH: EVQVVESGGDLVKPGGSLKLSCAASGFTFSRYGMSWVRQTPDKRLEWVATISSGGTYIYYPDSVKGRFTISRDNAKNTLYLQMSSLKSEDTAMYYCARDNYGSSYDYAMDYWGQGTSVTVSS
VL: B4 VL with F21I, S28T, N81S, V96D, F99V, W101L, G105A, I111L
notes: as for B7
B11: H11 mouse monoclonal antibody (antibody, V domains shown)
VH: B9 VH with S69T, R110Q
VL: B4 VL with V2I, F21I, S28N, N81S, V96D, F99V, W101L, G105A, K108R, I111L
notes: as for B7
B12: B9 mouse monoclonal antibody (antibody, V domains shown)
VH: B10 VH
VL: QIVLTQSPAIMSASPGEEVTLTCSASSSVSYMHWFQQRPGTSPKLWIYTTSNLASGVPARFSGSGSGTSYSLTISRMEAEDAATYYCQQRSSYPFTFGSGTKLEIK
notes: as for B7
B13: 3C2B1 mouse monoclonal antibody (antibody, V domains shown)
VH: EVMLVESGGGLVKPGGSLKLSCAASGITFSTYTMSWVRQTPEKRLEWVATISTGGDKTYYSDSVKGRFTISRDNAKNNLYLQMSSLRSEDTALYYCARGTTAMYYYAMDYWGQGTSVTVSS
VL: DIVLTQSPASLAVSLGQRATISCRASKSISTSDYNYIHWYQQKPGQPPKLLIYLASNLESGVPARFSGSGSGTDFTLNIHPVEEEDAATYYCQHSRELPLTFGAGTKLELK
notes: raised against PSMGFR; also called MN-3C2B1; anti-PSMGFR antibody 3C2B1
B14: 5C6F3 mouse monoclonal antibody (antibody, V domains shown)
VH: B8 VH
VL: B4 VL with F21I, S28T, N81S, V96D, F99V, W101L, G105A, I111L
notes: raised against PSMGFR; also called MN-5C6F3; anti-PSMGFR antibody 5C6F3

Substitutions are numbered along the chain they refer to.

The target in one assay is T1, N-10 peptide (PSMGFR minus 10 amino …). The assay can be described thus: ELISA (FIG. 64).
In the case of B1, the binding result was “binds”.
In the case of B2, the binding result is “binds”.
On the same count and under the same terms, for B3 the value was “binds”.

For a further assay, the target named is T2, PSMGFR peptide (Primary Sequence of the …). Description: ELISA (FIG. 65). (In general: In an ELISA, binding on a coated surface is turned into a signal by an enzyme label.)
As for B4, the binding result was “binds”.
In the case of B5, the binding result is listed as “binds”.
As to B6, the binding result is listed as “binds”.

For another assay, the target named is T3, C-10 peptide (PSMGFR minus 10 amino …). Description: ELISA (FIG. 201C). Here is the method:
(§1) FIG. 201A-201C show graphs of ELISA assays to determine the binding of another set of antibodies generated by immunizing animals with the PSMGFR peptide. […] F3, B12, B2, B7, B9, 8C7F3 and H11 all bound to the PSMGFR peptide and to the N−10 peptide.
(§2) This same ELISA assay was performed on the antibodies of the invention (FIG. 64-66 and FIG. 201). Note that only 20A10 exactly matches the binding profile of MNC2 and MNE6. 25E6, 28F9 and 18G12 are all able to bind to the N−10 peptide. 18B4 is the only antibody raised against the PSMGFR peptide that requires the 10 most N-terminal amino acids of the peptide. The color of the bars for each antibody in the ELISA graph are color coded to match the deductive cognate sequence, or a portion thereof, of that antibody. In addition, another set of antibodies was assayed by ELISA (FIG. 201). Of this set, B12, B2, B7, B9, 8C7F3, and H11 bound to the PSMGFR peptide, bound to the N−10 peptide, but not to the C−10 peptide (FIG. 201). Although these antibodies were raised against the N+20/C−27 peptide, all but one, 45C11, still bind to the PSMGFR peptide, albeit at the N-terminal portion of PSMGFR.
As for B7, the binding result is “no binding”.
With B8, the binding result is listed as “no binding”.
The same measure, in the same setting: next, B9: “no binding”; B10: “no binding”; B11: “no binding”.
For the molecule B12, the binding result is “no binding”.

The next assay concerns the target T1, N-10 peptide (PSMGFR minus 10 amino …). Description: ELISA (FIG. 201B). Here is the method: as §1, §2
As to B7, the binding result is “binds”.
In the case of B9, the binding result is reported as “binds”.
The same measure, in the same setting: next, B12: “binds”.

Another assay has the same target. The assay can be described thus: ELISA.
As to B13, the binding result was “binds”.
The same measure, in the same setting: next, B14: “binds”.
On to B4, for which the binding result is “no binding”.
For the molecule B5, the binding result is reported as “no binding”.
Still for that read-out and setting: next, B6: “no binding”.

Another assay concerns the target T2, PSMGFR peptide (Primary Sequence of the …). Description: ELISA.
For the molecule B1, the binding result is listed as “binds”.
As for B2, the binding result is listed as “binds”.
Turning to B13, the binding result is on record as “binds”.
Still for that read-out and setting: next, B3: “binds”; B14: “binds”.

The target of a further assay is T4, N+20/C-27 peptide (20 amino acids added …). Description: ELISA.
In the case of B4, the binding result is “binds”.
Turning to B5, the binding result is given as “binds”.
On the same count and under the same terms, next, B6: “binds”.

The target of another assay is T3, C-10 peptide (PSMGFR minus 10 amino …). Description: ELISA.
For the molecule B1, the binding result is “binds”.
As for B2, the binding result is reported as “binds”.
The same measure, in the same setting: next, B13: “no binding”; B4: “binds”; B5: “binds”.
Turning to B6, the binding result is “binds”.

The next assay concerns the target T2, PSMGFR peptide (Primary Sequence of the …). The assay can be described thus: ELISA (FIG. 201A).
In the case of B7, the binding result was “binds”.
Same read-out and setting: for B9 the value was “binds”; for B12, “binds”.

A further assay addresses T5, N+9/C-9 peptide (9 amino acids added …). The assay can be described thus: ELISA (FIG. 64A).
As to B1, the binding result is listed as “binds”.
The same measure, in the same setting: next, B2: “binds”.
Regarding B3, the binding result was “binds”.
